Source: patent US6903185

How the values were obtained:
[1] = target: NRE peptide (three-finger Zif268 variant) (synthetic) (UniProt P08046); assay: cell_activity; details: 293 cells
[2] = target: 268//NRE (six-finger fusion, Zif268 fingers - longer linker - NRE fingers) (synthetic) (UniProt P08046); assay: EMSA; details: room temp
[3] = target: NRE peptide (three-finger Zif268 variant selected by phage display) (synthetic) (UniProt P08046); assay: EMSA
[4] = target: 268/NRE (six-finger fusion, shorter linker RQKDGERP) (synthetic) (UniProt P08046); assay: cell_activity; details: 293 cells
[5] = target: 268//NRE (six-finger fusion, longer linker) (synthetic) (UniProt P08046); assay: cell_activity; details: VP16-activated transcription, 293 cells
[6] = target: Zif268 and NRE peptides co-expressed as separate chains (synthetic) (UniProt P08046+P08046); assay: cell_activity; details: co-expression of unlinked peptides; 293 cells

Question: Which activity (fold repression) [1] does the source give for “AAGGGTTCA (double strand) [N site in luciferase reporter promoter]” here?
Answer: 1.9

Question: Which results are given for “TCTGCAAGGGTTCAGCGTGGGCGGTAAG (double strand) [NZ site]”?
Answer: Kd ([2]; calculated from koff/kon, direct titration <1.0 pM, pH 7.0, 100 mM NaCl, 5 mM MgCl2, Zn): 0.0021 pM; Kd ([3]; apparent Kd with 0.1 nM Zif268 prebound to neighboring site): 60 pM; Kd ([3]; apparent Kd, NRE peptide alone): 180 pM

Question: For “AAGGGTTCAGTGCGTGGGCG (double strand) [N//Z site in luciferase reporter promoter]”, which activity (fold repression) [1] is on record?
Answer: 2.7

Question: What about the activity (fold repression) ([4]; linker modelled too short for all six fingers to bind) of the same sequence?
Answer: 22

Question: What about the activity (fold repression) [5] of the same sequence?
Answer: 47

Question: Which Kd [2] does the source give for “TCTGCAAGGGTTCAGGCGACACCAACCAA (double strand) [N site]” here?
Answer: 190 pM

Question: What does the source list for “TCTGCAAGGGTTCAGGCGTGGGCGGTAAG (double strand) [N/Z site]”?
Answer: Kd ([2]; calculated from koff/kon, direct titration <1.0 pM, p113 states 3.8 fM): 0.0037 pM; Kd ([3]; room temp): 180 pM

Question: For “GTGTGTGTGTGATCTGCGTGGGCGGTAAG (double strand) [Z site]”, which Kd ([2]; exact Kd not determined, smeared band) is on record?
Answer: 10 pM

Question: With “AAGGGTTCAGGCGTGGGCG (double strand) [N/Z site in luciferase reporter promoter]” as the sequence, how does the activity (fold repression) [1] read?
Answer: 1.8

Question: What about the activity (fold repression) [4] of the same sequence?
Answer: 68

Question: What about the activity (fold repression) [6] of the same sequence?
Answer: 8.5

Question: And the activity (fold repression) [5]?
Answer: 72

Question: “TCTGCAAGGGTTCAGTGCGTGGGCGGTAAG (double strand) [N//Z site]” was tested. Which Kd ([2]; calculated from koff/kon, direct titration <1.0 pM) did it give?
Answer: 0.003 pM
